# Assay results taken from patent publication US10702592B2, “Peptides and combination of peptides for use in immunotherapy against NHL and other cancers” (Immatics Biotechnologies GmbH, priority 2016, dated 2020).
# Molecular target: HLA-A*02:01 (Homo sapiens, UniProt P04439, D140Y/D185E/D98H/E176V/E277Q/G131W/G231S/I119V/I121R/I166T/I218V/L300P/L318F/N151K/N90K/P208A/P217A/Q86G/Q94H/R138H/R169H/T345S)
# Assay: MHC binding assay (UV-ligand exchange, beta2m ELISA)
# Settings: binding to HLA-A*02:01, UV-ligand exchange
# Excerpt: Candidate peptides for T cell based therapies according to the present invention were further tested for their MHC binding capacity (affinity). The individual peptide-MHC complexes were produced by UV-ligand exchange, where a UV-sensitive peptide is cleaved upon UV-irradiation, and exchanged with the peptide of interest as analyzed. Only peptide candidates that can effectively bind and stabilize the peptide-receptive MHC molecules prevent dissociation of the MHC complexes. To determine the yield of the exchange reaction, an ELISA was performed based on the detection of the light chain (β2m) of stabilized MHC complexes. The assay was performed as generally described in Rodenko et al. (Rodenko et al., 2006).
# 96 well MAXISorp plates (NUNC) were coated over night with 2 ug/ml streptavidin in PBS at room temperature, washed 4× and blocked for 1 h at 37° C. in 2% BSA containing blocking buffer. Refolded HLA-A*02:01/MLA-001 monomers served as standards, covering the range of 15-500 ng/ml. Peptide-MHC monomers of the UV-exchange reaction were diluted 100 fold in blocking buffer. Samples were incubated for 1 h at 37° C., washed four times, incubated with 2 ug/ml HRP conjugated anti-β2m for 1 h at 37° C., washed again and detected with TMB solution that is stopped with […]. Absorption was measured at 450 nm. Candidate peptides that show a high exchange yield (preferably higher than 50%, most preferred higher than 75%) are generally preferred for a generation and production of antibodies or fragments thereof, and/or T cell receptors or fragments thereof, as they show sufficient avidity to the MHC molecules and prevent dissociation of the MHC complexes.
row,Substance,"Peptide exchange (MHC class I binding score, peptide exchange yield)"
1,172 (TLQDSLEFI; listed as Homo sapiens) [compound 172],“++++” (≥75% = ++++)
2,173 (VILDSVASV; listed as Homo sapiens) [compound 173],“++++” (≥75% = ++++)
3,174 (VLVEITDVDFAA; listed as Homo sapiens) [compound 174],“++++” (≥75% = ++++)
4,175 (VMESILLRL; listed as Homo sapiens) [compound 175],“+++” (≥50 = +++)
5,176 (YLHIYESQL; listed as Homo sapiens) [compound 176],“+++” (≥50 = +++)
6,177 (YLYEAEEATTL; listed as Homo sapiens) [compound 177],“+++” (≥50 = +++)
7,178 (YVLQGEFFL; listed as Homo sapiens) [compound 178],“+++” (≥50 = +++)
8,179 (FVDTNLYFL; listed as Homo sapiens) [compound 179],“+++” (≥50 = +++)
9,180 (GILQLVESV; listed as Homo sapiens) [compound 180],“+++” (≥50 = +++)
10,181 (LLFDQNDKV; listed as Homo sapiens) [compound 181],“+++” (≥50 = +++)
11,182 (LLPPPPPVA; listed as Homo sapiens) [compound 182],“++++” (≥75% = ++++)
12,183 (VLFETVLTI; listed as Homo sapiens) [compound 183],“+++” (≥50 = +++)
13,184 (AVLGTSWQL; listed as Homo sapiens) [compound 184],“+++” (≥50 = +++)
14,185 (FIAQLNNVEL; listed as Homo sapiens) [compound 185],“+” (≥10% = +)
15,186 (FLDVSRDFV; listed as Homo sapiens) [compound 186],“+++” (≥50 = +++)
16,187 (FLNSFVFKM; listed as Homo sapiens) [compound 187],“++” (≥20% = ++)
17,188 (GLEDEMYEV; listed as Homo sapiens) [compound 188],“++” (≥20% = ++)
18,189 (SLSHLVPAL; listed as Homo sapiens) [compound 189],“+++” (≥50 = +++)
19,190 (GLIELVDQL; listed as Homo sapiens) [compound 190],“+++” (≥50 = +++)
20,191 (GLSDISAQV; listed as Homo sapiens) [compound 191],“+++” (≥50 = +++)
21,192 (GMAAEVPKV; listed as Homo sapiens) [compound 192],“++” (≥20% = ++)

row,Substance,"Peptide exchange (MHC class I binding score, peptide exchange yield)"
1,193 (SLADSMPSL; listed as Homo sapiens) [compound 193],“++” (≥20% = ++)
2,194 (SLAPFDREPFTL; listed as Homo sapiens) [compound 194],“++” (≥20% = ++)
3,195 (ALIPDLNQI; listed as Homo sapiens) [compound 195],“+++” (≥50 = +++)
4,197 (YLLTDNVVKL; listed as Homo sapiens) [compound 197],“++” (≥20% = ++)
5,198 (GLLSAVSSV; listed as Homo sapiens) [compound 198],“+++” (≥50 = +++)
6,199 (SLNSTTWKV; listed as Homo sapiens) [compound 199],“+++” (≥50 = +++)
7,200 (YLLDFEDRL; listed as Homo sapiens) [compound 200],“++++” (≥75% = ++++)
8,201 (YLNISQVNV; listed as Homo sapiens) [compound 201],“+++” (≥50 = +++)
9,202 (ALAAGGYDV; listed as Homo sapiens) [compound 202],“++” (≥20% = ++)
10,203 (ILDTIFHKV; listed as Homo sapiens) [compound 203],“+++” (≥50 = +++)
11,204 (RLCDIVVNV; listed as Homo sapiens) [compound 204],“++” (≥20% = ++)
12,205 (TLFYESPHL; listed as Homo sapiens) [compound 205],“+++” (≥50 = +++)
13,206 (SAVSGQWEV; listed as Homo sapiens) [compound 206],“++” (≥20% = ++)
14,207 (GLVGLLEQA; listed as Homo sapiens) [compound 207],“++++” (≥75% = ++++)
15,208 (FLAVSLPLL; listed as Homo sapiens) [compound 208],“+++” (≥50 = +++)
16,209 (FLLDTISGL; listed as Homo sapiens) [compound 209],“+++” (≥50 = +++)
17,210 (FLAEQFEFL; listed as Homo sapiens) [compound 210],“+++” (≥50 = +++)
18,211 (FIDDLFAFV; listed as Homo sapiens) [compound 211],“+++” (≥50 = +++)
19,212 (FLIGQGAHV; listed as Homo sapiens) [compound 212],“+++” (≥50 = +++)
20,213 (YINEDEYEV; listed as Homo sapiens) [compound 213],“++” (≥20% = ++)
21,214 (FLFDGSMSL; listed as Homo sapiens) [compound 214],“+++” (≥50 = +++)

row,Substance,"Peptide exchange (MHC class I binding score, peptide exchange yield)"
1,215 (QLFEEEIEL; listed as Homo sapiens) [compound 215],“++” (≥20% = ++)
2,216 (KVVSNLPAI; listed as Homo sapiens) [compound 216],“++” (≥20% = ++)
3,217 (AQFGAVLEV; listed as Homo sapiens) [compound 217],“+++” (≥50 = +++)
4,218 (ALDQFLEGI; listed as Homo sapiens) [compound 218],“+++” (≥50 = +++)
5,219 (ALLELENSV; listed as Homo sapiens) [compound 219],“++” (≥20% = ++)
6,220 (FLAEAPTAL; listed as Homo sapiens) [compound 220],“++” (≥20% = ++)
7,221 (FLAPDNSLLLA; listed as Homo sapiens) [compound 221],“++++” (≥75% = ++++)
8,222 (FLIETGTLL; listed as Homo sapiens) [compound 222],“+++” (≥50 = +++)
9,223 (FLQDIPDGLFL; listed as Homo sapiens) [compound 223],“++” (≥20% = ++)
10,224 (FLSPLLPLL; listed as Homo sapiens) [compound 224],“++” (≥20% = ++)
11,226 (GVIDPVPEV; listed as Homo sapiens) [compound 226],“++” (≥20% = ++)
12,227 (IIAEGIPEA; listed as Homo sapiens) [compound 227],“++” (≥20% = ++)
13,228 (IIAEYLSYV; listed as Homo sapiens) [compound 228],“++” (≥20% = ++)
14,229 (ILSPWGAEV; listed as Homo sapiens) [compound 229],“++++” (≥75% = ++++)
15,230 (IMDDDSYGV; listed as Homo sapiens) [compound 230],“++” (≥20% = ++)
16,231 (IVMGAIPSV; listed as Homo sapiens) [compound 231],“+++” (≥50 = +++)
17,232 (KVMEGTVAA; listed as Homo sapiens) [compound 232],“++” (≥20% = ++)
18,233 (MLEVHIPSV; listed as Homo sapiens) [compound 233],“+++” (≥50 = +++)
19,234 (NLQRTVVTV; listed as Homo sapiens) [compound 234],“++” (≥20% = ++)
